The nature of this data set: protein stability index of a GFP-peptide fusion (GPS, HEK-293T) (PSI 1-6); higher = more stable. Conditions: c terminus: a fixed tail appended.

± gives the standard deviation.
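Also: 24-mer peptide tiles fused after GFP, lentivirally expressed, FACS-sorted into six equal bins by GFP/DsRed ratio, decoded by Illumina sequencing, PSI is the read-weighted mean bin number.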

Consider ISKGEEPRAGKEESGVSVSNSQPT [SLC29A1], for which the protein stability index was found to be 5.48 ± 0.24 (treatment: DMSO) and 5.52 ± 0.22 (treatment: MLN4924 1 uM, 8 h).

In turn, QGEQLEVPERLLVVLDMEEGTLGY [SPSB2] came in with a protein stability index (treatment: DMSO) of 2.86 ± 0.34 and a protein stability index (treatment: MLN4924 1 uM, 8 h) of 3.06 ± 0.24.

These data come from the supplement of paper PMC10567573.
